Read-outs that look alike come from different tables or passages of the source.
Assays:
[1] = target: T1, biotinylated Aβ1-40 peptide (biotinylated (N-biotinylated in Example 7)); experiment: SPR, Fab over Aβ1-40 on SA chip
T1 construct: captured on streptavidin (SA) chip; also called Biotinylated Aβ peptide 1-40; Aβ1-40 on SA chip
Experimental: (§1) Affinities of 9TL Fab fragment and its variants Fab fragments were determined by Surface Plasmon Resonance (SPR) system (BIAcore 3000™, BIAcore, Inc., Piscaway, N.J.). SA chips (streptavidin) were used according to the supplier's instructions. Biotinylated Aβ peptide 1-40 was diluted into HBS-EP (10 mM HEPES pH 7.4, 150 mM NaCl, 3 mM EDTA, 0.005% P20) and injected over the chip at a concentration of 0.005 mg/mL. Using variable flow time across the individual chip channels, two ranges of antigen density were achieved: 10-200 response units (RU) for detailed kinetic studies and 500-600 RU for concentration studies and screening. […] HBS-EP buffer was used as running buffer for all the BIAcore assays. […] The concentrations of the Fab proteins were determined by ELISA and/or SDS-PAGE electrophoresis using a standard Fab of known concentration (determined by amino acid analysis). Kinetic association rates (kₒₙ) and dissociation rates (koff) were obtained simultaneously by fitting the data to a 1:1 Langmuir binding model (Karlsson, R. Roos, H. Fagerstam, L. Petersson, B. (1994). Methods Enzymology 6. 99-110) using the BIAevaluation program. Equilibrium dissociation constant (KD) values were calculated as koff/kₒₙ.

[2] = target: T1, biotinylated Aβ1-40 peptide; experiment: SPR, Fab over Aβ1-40 on SA chip; remark: listed apart in the source
Target sequence in this assay (peptide, as listed by the source): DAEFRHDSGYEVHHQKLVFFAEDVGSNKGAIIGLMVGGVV

[3] = target: T2, Aβ28-40 peptide; experiment: SPR peptide competition, Aβ1-40 on SA chip
T2 peptide: KGAIIGLMVGGVV
Experimental: (§2) To determine the epitope on Aβ polypeptide that is recognized by antibody 9TL, Surface Plasmon Resonance (SPR, Biacore 3000) binding analysis was used. Aβ₁₋₄₀ polypeptide coupled to biotin (Global Peptide Services, CO) was immobilized on a streptavidin-coated chip (SA chip). The binding of Aβ antibodies Fab fragments (at 50 nM) to the immobilized Aβ₁₋₄₀ in the absence or presence of different soluble fragments of the Aβ peptide (at […], from American Peptide Company Inc., CA). Amino acid sequences of Aβ₁₋₄₀, Aβ₁₋₄₂, and Aβ₁₋₄₃ are shown in below in Table 4. The Aβ peptides which displaced binding of antibody 9TL Fab fragment to Aβ₁₋₄₀ were Aβ₂₈₄₀, Aβ₁₋₄₀, Aβ₃₃₋₄₀, and Aβ₁₇₋₄₀, respectively (FIG. 2). Thus, antibody 9TL binds to a C-terminal peptide (33-40) of Aβ₁₋₄₀.

[4] = target: T3, Aβ33-40 peptide; experiment: SPR peptide competition, Aβ1-40 on SA chip
T3 construct: also called C-terminal peptide (33-40) of Aβ1-40
T3 peptide: GLMVGGVV
Experimental: as §2

[5] = target: T4, Aβ1-43 peptide; experiment: SPR peptide competition, Aβ1-40 on SA chip
T4 construct: also called 1-43 (WT)
Experimental: as §2

[6] = target: T5, Aβ28-42 peptide; experiment: SPR peptide competition, Aβ1-40 on SA chip
T5 peptide: KGAIIGLMVGGVVIA
Experimental: as §2

[7] = target: T6, Aβ17-40 peptide; experiment: SPR peptide competition, Aβ1-40 on SA chip
T6 peptide: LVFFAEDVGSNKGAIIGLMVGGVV
Experimental: as §2

[8] = target: T1, biotinylated Aβ1-40 peptide; experiment: SPR, Fab over Aβ1-40 on SA chip; Fab fragment; Aβ1-40 immobilized on SA chip
Experimental: as §1, with “Kinetic association rates (kₒₙ) and dissociation rates (koff) were obtained simultaneously by fitting the data to a 1:1 Langmuir binding model (Karlsson, R. Roos, H. Fagerstam, L. Petersson, B. (1994). Methods Enzymology 6. 99-110) using the BIAevaluation program.” left out
All amino acid substitutions of the variants shown in Table 3 are described relative to the sequence of 9TL. KD and other kinetic parameters were determined by BIAcore analysis described above with Aβ₁₋₄₀ immobilized on SA chip.

[9] = target: T1, biotinylated Aβ1-40 peptide; experiment: SPR, Fab over Aβ1-40 on SA chip; KD=koff/kon

T4 sequence (peptide, as listed by the source): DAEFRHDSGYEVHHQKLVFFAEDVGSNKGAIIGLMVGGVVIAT

Kd [1]: 1.13 nM
koff [1]: 0.000359 s⁻¹
kon [1]: 318000 M⁻¹ s⁻¹
koff [2]: 0.000359 s⁻¹
binding result [3]: binds
binding result [4]: binds
binding result [7]: binds
kon [8]: 318000 M⁻¹ s⁻¹
Kd [9]: 1.13 nM
B1: 9TL Fab fragment (Fab, V domains shown)
VH: QVQLVQSGAEVKKPGASVKVSCKASGYYTEAYYIHWVRQAPGQGLEWMGRIDPATGNTKYAPRLQDRVTMTRDTSTSTVYMELSSLRSEDTAVYYCASLYSLPVYWGQGTTVTVSS
VL: DVVMTQSPLSLPVTLGQPASISCKSSQSLLYSDAKTYLNWFQQRPGQSPRRLIYQISRLDPGVPDRFSGSGSGTDFTLKISRVEAEDVGVYYCLQGTHYPVLFGQGTRLEIKR
notes: Fab from E. coli with human IgG2 CH1 (P01859) and human kappa constant domain (CAA09181)
binding result [5]: no binding (tested: 10 µM (FIG. 2 legend; text prints 10 pM))
binding result [6]: no binding (tested: 10 µM (FIG. 2 legend; text prints 10 pM))

— patent US20090022728A1 (RINAT NEUROSCIENCE, published 2009)
